Blank lines part the entries; values can stand above or below the sequence they belong to.
Tests used:
Experiment in all cases: IEDB peptide-MHC binding, purified MHC/competitive/radioactivity; filed as Kd, often an IC50 or EC50 that approximates it; ≥ and ≤ were set here for values at or beyond the usual limits of such assays
[1] = target: HLA-A*33:01
[2] = target: HLA-A*31:01
[3] = target: HLA-A*11:01
[4] = target: HLA-A*03:01
[5] = target: HLA-A*68:01
[6] = target: HLA-A*02:03
[7] = source organism: Vaccinia virus WR
[8] = source organism: Dengue virus 1 Brazil/97-11/1997
[9] = source organism: Dengue virus 4 Philippines/H241/1956
[10] = source organism: SARS coronavirus Tor2
[11] = source organism: Dengue virus 2 Peru/IQT2913/1996
[12] = source organism: Dengue virus 3 Sri Lanka/1266/2000
[13] = source organism: Lassa virus Josiah

Sequence: CFKEASFSKR
Kd [1, 7]: 61.4 nM | Kd [2, 7]: 35.9 nM | Kd [3, 7]: ≥ 43600 nM | Kd [4, 7]: 9160 nM | Kd [5, 7]: 1640 nM

Sequence: QMWQLMYFHR
Kd [1, 8]: 0.396 nM | Kd [2, 8]: ≥ 39900 nM

Sequence: MTLMKGASKR
Kd [1, 9]: 68.2 nM | Kd [2, 9]: 78.5 nM | Kd [5, 9]: 94.5 nM

Sequence: ATSTGNYNYK
Kd [1, 10]: ≥ 26300 nM | Kd [2, 10]: 69.5 nM | Kd [3, 10]: 1.38 nM | Kd [4, 10]: 4.34 nM | Kd [5, 10]: 9.61 nM

Sequence: MLNRVQILMK
Kd [1, 7]: 2780 nM | Kd [2, 7]: 619 nM | Kd [3, 7]: 130 nM | Kd [4, 7]: 1.28 nM | Kd [5, 7]: 698 nM

Sequence: ILKINSVKYY
Kd [1, 7]: 11200 nM | Kd [2, 7]: 4910 nM | Kd [3, 7]: 13500 nM | Kd [4, 7]: 17200 nM | Kd [5, 7]: 1420 nM

Sequence: ATTFITPMLR
Kd [2, 11]: 48.6 nM | Kd [3, 11]: 14 nM | Kd [5, 11]: 15.3 nM

Sequence: LTTHCTKLR
Kd [1, 7]: 4530 nM | Kd [2, 7]: 8510 nM | Kd [3, 7]: ≥ 77900 nM | Kd [4, 7]: ≥ 78000 nM | Kd [5, 7]: 300 nM

Sequence: NIHTAITQVR
Kd [5, 9]: 167 nM

Sequence: FTTNIWLKLK
Kd ([5]; source organism: Dengue virus 2 16681-PDK53): 12.5 nM

Sequence: IVSSVNMVSR
Kd [1, 12]: 346 nM | Kd [2, 12]: 82.7 nM | Kd [5, 12]: 9.22 nM

Sequence: RSLQTIASK
Kd [1, 7]: ≥ 77700 nM | Kd [2, 7]: 4.3 nM | Kd [3, 7]: 7.32 nM | Kd [4, 7]: 1.5 nM | Kd [5, 7]: 187 nM

Sequence: SLNRQTVSR
Kd [1, 7]: 286 nM | Kd [2, 7]: 7.2 nM | Kd [3, 7]: 1350 nM | Kd [4, 7]: 67.1 nM | Kd [5, 7]: 818 nM

Sequence: AVSTANIFR
Kd [3, 9]: 90.7 nM | Kd [5, 9]: 29.6 nM

Sequence: VSSVNTTSK
Kd [3, 9]: 1390 nM

Sequence: SADASTFLK
Kd [1, 10]: 2570 nM | Kd [2, 10]: 99.8 nM | Kd [3, 10]: 2.97 nM | Kd [4, 10]: 16.4 nM | Kd [5, 10]: 12 nM

Sequence: CTGSFKLEK
Kd [3, 8]: 39.8 nM

Sequence: LLILCTSQI
Kd [6, 8]: 8.71 nM

Sequence: KNGAIKVLR
Kd [2, 8]: ≥ 51000 nM

Sequence: RLASAILNA
Kd [6, 9]: 22.8 nM

Sequence: GSYIALDSGR
Kd [1, 13]: 1160 nM | Kd [2, 13]: 78.3 nM | Kd [3, 13]: 150 nM | Kd [4, 13]: 4230 nM | Kd [5, 13]: 276 nM

Sequence: CAMPYNILDR
Kd [1, 7]: 640 nM | Kd [2, 7]: 301 nM | Kd [3, 7]: 187 nM | Kd [4, 7]: 7240 nM | Kd [5, 7]: 8.75 nM

Kd ([6]; source organism: Homo sapiens): 11.1 nM
Sequence: ILHVDNHIGI

Sequence: TSPGEIKPK
Kd [1, 7]: ≥ 77700 nM | Kd [2, 7]: ≥ 22500 nM | Kd [3, 7]: 1040 nM | Kd [4, 7]: ≥ 61800 nM | Kd [5, 7]: 4810 nM

From the Immune Epitope Database (IEDB)
